This is an account of results in US20170158762A1 (ANAPTYSBIO, published 2017).

For assay [1], the target named is cell surface DDR1 on T47D cells and 293/DDR1 cells (UniProt Q08345). Nature of the assay: cell-based or functional assay.
Assay [2] deals with T1, Monomeric soluble human DDR1-avi-his, APE1469.6 (hDDR1) (human, UniProt Q08345 21-416, limits assumed).
T1 construct: also called hDDR1-avi-his; huDDR1; not shown: avi tag and his tag
Description: SPR (BIACORE T200), antibody captured on anti-human IgG Fc, monomeric DDR1-avi-his as analyte, 25 C, 1:1 fit. On the procedure:
anti-Human IgG (Fc-specific, ≈10,000 RU) (GE Healthcare, Little Chalfont, Buckinghamshire, UK) was immobilized on a BIACORE™[…] chip using EDC-activated amine coupling chemistry. Antibodies (0.5 μg/mL, 50 second capture time at 10 μl/minute) were then captured using this surface to a target capture level of ˜125 RU. Monomeric soluble human DDR1-avi-his was then flowed over captured antibody (300 second association, 600 second dissociation) using a three-fold serial dilution series from 200 nM to 0.27 nM. Runs were performed at 25° C. and HBS-EP+, pH 7.6 buffer was used for all dilutions (Teknova, Hollister, Calif.). Captured antibody and antigen were removed between each cycle using two regeneration steps with 3M MgCl₂ (60 seconds contact time) to ensure a fresh binding surface for each concentration of antigen. The resulting sensorgrams were fit globally using a 1:1 binding model to calculate on- and off-rates (ka and kd, respectively) and dissociation constants as a measure of overall affinity (KD).
For orientation: In SPR one partner is held on a chip, and binding of the other changes the refractive index at the surface.

Assay [3] addresses T1, Monomeric soluble human DDR1-avi-his, …. Nature of the assay: ELISA on coated hDDR1-avi-his; antibody kept in normal mouse serum (day 0, 1, 4, 7 at 37 C; day 7 at 4 C) or PBS day 0; absorbance 450-540 nm. The method, then: The APE05570 and APE05571 antibodies described in Table 4 were tested for the ability to bind cell surface DDR in mouse serum. The antibodies were incubated in normal mouse serum for 1, 4, or 7 days at 37° C. Varying concentrations of the antibodies were then analyzed for ability to bind to DDR1 by an ELISA assay. Briefly, hDDR1-avi-his was coated on plates at 1 μg/m overnight at 4° C. and washed three times in phosphate buffered saline with Tween (PBST). Plates were then blocked with 3% BSA/PBS (200 μl/well) for one hour. The antibodies were then diluted, added to the washed plates, and incubated for two hours at room temperature. Bound antibodies were detected with goat anti HuIgG-(H+L chain)-horseradish peroxidase (HRP) at a dilution of 1:10,000. After washing the plates, 100 μl of 3,3′,5,5′-tetramethylbenzidine (TMB) substrate was added to detect antibody, and plates were read at 450 nm using a SpectraMax™ microplate reader (Molecular Devices, LLC., Sunnyvale, Calif.).
In general terms: An ELISA detects its analyte on a solid surface through an enzyme-linked reagent.

What is called Kd is the free concentration of one partner at which half of the binding sites on the other are occupied at equilibrium, for simple one-to-one binding. As a reminder, the koff is a measure of how fast the partners let go of each other. A higher koff goes with a short-lived complex. As usually defined, the kon is the second-order rate constant of association. Higher therefore signals fast association. In general, EC50 (read off the curve) refers to the concentration needed to bring the measured effect to its halfway point.

T1 sequence (Q08345 21-416 limits assumed): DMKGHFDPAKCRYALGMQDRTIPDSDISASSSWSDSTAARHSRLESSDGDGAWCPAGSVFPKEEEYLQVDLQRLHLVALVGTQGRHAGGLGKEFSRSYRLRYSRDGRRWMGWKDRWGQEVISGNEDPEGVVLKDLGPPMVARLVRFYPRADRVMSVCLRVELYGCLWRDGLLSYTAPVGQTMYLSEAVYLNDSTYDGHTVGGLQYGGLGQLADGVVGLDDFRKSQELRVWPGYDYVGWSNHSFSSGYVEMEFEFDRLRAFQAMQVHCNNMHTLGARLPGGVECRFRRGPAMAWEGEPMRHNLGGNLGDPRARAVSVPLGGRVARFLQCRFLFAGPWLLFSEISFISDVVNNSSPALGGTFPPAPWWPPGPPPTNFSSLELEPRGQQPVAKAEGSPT
cell surface DDR1 on T47D cells and 293/DDR1 cells, sequence (Q08345 19-913, stated change not applied): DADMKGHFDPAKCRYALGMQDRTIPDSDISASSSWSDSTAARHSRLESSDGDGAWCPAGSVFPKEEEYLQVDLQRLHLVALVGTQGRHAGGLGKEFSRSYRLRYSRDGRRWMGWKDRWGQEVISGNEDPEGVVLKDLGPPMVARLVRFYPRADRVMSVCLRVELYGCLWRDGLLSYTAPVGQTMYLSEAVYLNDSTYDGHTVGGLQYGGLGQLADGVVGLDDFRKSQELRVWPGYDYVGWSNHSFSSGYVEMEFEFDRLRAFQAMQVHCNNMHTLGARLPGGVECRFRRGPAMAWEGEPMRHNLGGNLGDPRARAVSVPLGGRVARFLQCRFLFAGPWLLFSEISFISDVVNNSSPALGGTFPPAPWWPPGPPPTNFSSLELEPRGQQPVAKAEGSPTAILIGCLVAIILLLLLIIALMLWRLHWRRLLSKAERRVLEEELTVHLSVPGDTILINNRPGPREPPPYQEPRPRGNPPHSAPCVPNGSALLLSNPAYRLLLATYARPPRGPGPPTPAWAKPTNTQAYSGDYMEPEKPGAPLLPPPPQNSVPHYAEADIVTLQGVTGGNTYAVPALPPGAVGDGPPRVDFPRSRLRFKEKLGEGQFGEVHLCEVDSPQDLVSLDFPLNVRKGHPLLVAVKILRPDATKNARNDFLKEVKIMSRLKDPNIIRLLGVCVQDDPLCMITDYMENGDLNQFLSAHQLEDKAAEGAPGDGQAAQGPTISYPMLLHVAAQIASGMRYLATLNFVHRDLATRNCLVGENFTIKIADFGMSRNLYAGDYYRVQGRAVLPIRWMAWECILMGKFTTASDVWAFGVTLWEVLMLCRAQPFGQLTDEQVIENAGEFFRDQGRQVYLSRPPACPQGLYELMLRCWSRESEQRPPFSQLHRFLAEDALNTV

B1: APE05552 (antibody, V domains shown)
VH: EVQLVQSGAEVKKPGESLKISCKGSGYSFTNSYWIGWVRQMPGKGLEWMGMIYPGDSDTRYSPSFQGQVTISSDKSISTAYLQWNSLKASDTAVYYCAKDLAPSAYYDYWGQGTLVTVSS
VL: EIVLTQSPGTLSLSPGERATLSCRASQSVRSSYLAYLAWYQQKPGQAPRLLIYDASSRATGIPDRFSGSGSGTDFTLTISRLEPEDFAVYYCQQYGRLPYTFGQGTRLEIKR
notes: from the stated CDR positions they appear to be variable regions; human IgG (captured with anti-human IgG Fc); also called APE05552.2
Consider B1, for which the P-DDR1 IC50 (nM); collagen I-stimulated T47D cells, Phospho-DDR1 ELISA in assay [1] amounted to 27.6 nM. In assay [2], this molecule showed a Kd of 43.8 nM, a koff of 0.0222 s⁻¹ and an association rate constant (kon) of 507000 M⁻¹ s⁻¹.

B2: APE05571 (antibody, V domains shown)
VH: EVQLVQSGAEVKKPGESLKISCKGSGYSFTNSYWIGWVRQMPGKGLEWMGMIYPGDSDTRYSPSFQGQVTISSDKSISTAYLQWASLKASDTAVYYCAKDLTPSAYYDYWGQGTLVTVSS
VL: EIVLTQSPGTLSLSPGERATLSCRASQSVRSSYLAYLAWYQQKPGQAPRLLIYDASSRATGIPDRFSGSGSGTDFTLTISRLEPEDFAVYYCQQYGRLPYTFGQGTRLEIKR
notes: from the stated CDR positions they appear to be variable regions; human IgG (captured with anti-human IgG Fc); also called APE05571.1
In turn, B2 gave a P-DDR1 IC50 (nM); collagen I-stimulated T47D cells, Phospho-DDR1 ELISA in assay [1] of 19.3 nM. In assay [2], this molecule registered a Kd of 47 nM, a koff of 0.0233 s⁻¹ and a kon of 496000 M⁻¹ s⁻¹. Also, in assay [3], the “EC50 (read off the curve)” value is around 7 ng/mL.

B3: APE05551 (antibody, V domains shown)
VH: EVQLVQSGAEVKKPGESLKISCKGSGYSFTNSYWIGWVRQMPGKGLEWMGMIYPGDSDTRYSPSFQGQVTISSDKSISTAYLQWNSLKASDTAVYYCAKDLAPSAYYNYWGQGTLVTVSS
VL: EIVLTQSPGTLSLSPGERATLSCRASQSVRSSYLAYLAWYQQKPGQAPRLLIYDASSRATGIPDRFSGSGSGTDFTLTISRLEPEDFAVYYCQQYGRLPYTFGQGTRLEIKR
notes: from the stated CDR positions they appear to be variable regions; human IgG (captured with anti-human IgG Fc); also called APE05551.2
In assay [1], B3 had a P-DDR1 IC50 (nM); collagen I-stimulated T47D cells, Phospho-DDR1 ELISA of 26.1 nM. In assay [2], the Kd was determined as 51.4 nM, the koff came to 0.0284 s⁻¹ and the kon was 551000 M⁻¹ s⁻¹.
